Measured values from article PMC2063703 (The Journal of Cell Biology, 2006).
Numbering of substitutions follows the chain as printed. Names may count otherwise.

B1: Vps4 (enzyme)
chain: MSTGDFLTKGIELVQKAIDLDTATQYEEAYTAYYNGLDYLMLALKYEKNPKSKDLIRAKFTEYLNRAEQLKKHLESEEANAAKKSPSAGSGSNGGNKKISQEEGEDNGGEDNKKLRGALSSAILSEKPNVKWEDVAGLEGAKEALKEAVILPVKFPHLFKGNRKPTSGILLYGPPGTGKSYLAKAVATEANSTFFSVSSSDLVSKWMGESEKLVKQLFAMARENKPSIIFIDEVDALTGTRGEGESEASRRIKTELLVQMNGVGNDSQGVLVLGATNIPWQLDSAIRRRFERRIYIPLPDLAARTTMFEINVGDTPCVLTKEDYRTLGAMTEGYSGSDIAVVVKDALMQPIRKIQSATHFKDVSTEDDETRKLTPCSPGDDGAIEMSWTDIEADELKEPDLTIKDFLKAIKSTRPTVNEDDLLKQEQFTRDFGQEGN
B2: GST-Vta1 (natural protein)
chain: MASNAARVVATAKDFDKVGLGIIGYYLQLYAVELILSEEDRSQEMTALATELLDTIEAFKKEIGGESEAEDSDKSLHVMNTLIHDQEKAKIYMLNFTMSLYNEKLKQLKDGPWDVMLKRSLWCCIDLFSCILHLWKENISETSTNSLQKRIKYCKIYLSKLAKGEIGSSDEKTLDYADFADDSEEIKDEDVDHQTSDLENNNNDKVEGLAPKDQTTSYEPVDEVPEFIDDADSVNEEEQTVDKNEDAITKDEQQVVKKEVDLTRPSAPSEPAAAEHKSYTKDELTKIMDRASKIEQIQKLAKYAISALNYEDLPTAKDELTKALDLLNSI
B3: Vps4^E233Q (enzyme)
chain: B1 chain with E233Q
B4: Vta1 (purified recombinant, bacterially expressed) (natural protein)
chain: B2 chain
B5: GST-Vta1^ΔN68 (domain or fragment)
chain: AEDSDKSLHVMNTLIHDQEKAKIYMLNFTMSLYNEKLKQLKDGPWDVMLKRSLWCCIDLFSCILHLWKENISETSTNSLQKRIKYCKIYLSKLAKGEIGSSDEKTLDYADFADDSEEIKDEDVDHQTSDLENNNNDKVEGLAPKDQTTSYEPVDEVPEFIDDADSVNEEEQTVDKNEDAITKDEQQVVKKEVDLTRPSAPSEPAAAEHKSYTKDELTKIMDRASKIEQIQKLAKYAISALNYEDLPTAKDELTKALDLLNSI
B6: GST-Vta1^Δ37–68 (natural protein)
chain: MASNAARVVATAKDFDKVGLGIIGYYLQLYAVELILAEDSDKSLHVMNTLIHDQEKAKIYMLNFTMSLYNEKLKQLKDGPWDVMLKRSLWCCIDLFSCILHLWKENISETSTNSLQKRIKYCKIYLSKLAKGEIGSSDEKTLDYADFADDSEEIKDEDVDHQTSDLENNNNDKVEGLAPKDQTTSYEPVDEVPEFIDDADSVNEEEQTVDKNEDAITKDEQQVVKKEVDLTRPSAPSEPAAAEHKSYTKDELTKIMDRASKIEQIQKLAKYAISALNYEDLPTAKDELTKALDLLNSI
B7: GST-Vta1^S306A (natural protein)
chain: B2 chain with S306A
B8: His6-Vta1 (natural protein)
chain: B2 chain
B9: GST-Vta1^K322A (natural protein)
chain: B2 chain with K322A
B10: GST-SBP1 (natural protein)
chain: MAALAPLPPLPAQFKSIQHHLRTAQEHDKRDPVVAYYCRLYAMQTGMKIDSKTPECRKFLSKLMDQLEALKKQLGDNEAITQEIVGCAHLENYALKMFLYADNEDRAGRFHKNMIKSFYTASLLIDVITVFGELTDENVKHRKYARWKATYIHNCLKNGETPQAGPVGIEEDNDIEENEDAGAASLPTQPTQPSSSSTYDPSNMPSGNYTGIQIPPGAHAPANTPAEVPHSTGVASNTIQPTPQTIPAIDPALFNTISQGDVRLTPEDFARAQKYCKYAGSALQYEDVSTAVQNLQKALKLLTTGRE

Tests used:
Vps4 (yeast) = Vps4 (yeast) (UniProt P52917)
Vps4^E233Q [1] = biological target: B3; assay: pull-down
[2] = biological target: B4; assay: SEC
SEC = biological target: the molecule itself; assay: SEC
Vps4^E233Q [3] = biological target: B3; assay: SEC
AUC = biological target: the molecule itself; assay: AUC

With B1 the Km of the Vps4 protein concentration-dependent ATPase activity, with 1 μM Vta1 (Vps4 (yeast)) was 0.118 µM, the Km of the Vps4 protein concentration-dependent ATPase activity, with 6 μM Vta1 (Vps4 (yeast)) was 0.069 µM and the Km of the Vps4 protein concentration-dependent ATPase activity, without Vta1 (Vps4 (yeast)) was 1.1 µM.

B2: binds (Vps4^E233Q [1]).

With B3 the “stoichiometry N” value [2] was ~1 and the “stoichiometry N” value (SEC) was 2.

B4: binds (Vps4^E233Q [3]).

B5: binds (Vps4^E233Q [1]).

B6: binds (Vps4^E233Q [1]).

B7: binds (Vps4^E233Q [1]).

For B8, the “stoichiometry N” value (AUC) was 2.

B9: binds (Vps4^E233Q [1]).

RASKIEQIQKLAKYAISALNYEDLPTAKDELTKALDLLNSI (domain or fragment) [GST-VSL^Vta1]: binds (Vps4^E233Q [1]).

B10: binds (Vps4^E233Q [1]).

EDFARAQKYCKYAGSALQYEDVSTAVQNLQKALKLLTTGRE (domain or fragment) [GST-VSL^SBP1]: binds (Vps4^E233Q [1]).
